From PMC8773746
Each block holds one substance with its values, some of them ahead of it.

Assays:
[1] = biological target: Human erythropoietin (Epoetin β) (human) (UniProt P01588); assay: SPR; EPO immobilised by amine coupling on a ProteOn GLH chip (up to 3 000 RU); S100 or CaM as analyte (0.25–4 μM); 25 °C; 10 mM HEPES, 150 mM NaCl, 0.05% TWEEN 20, pH 7.4, 1 mM CaCl2; heterogeneous ligand model, values averaged over analyte concentrations (n = 5)
[2] = biological target: S100P (Homo sapiens) (UniProt P25815); conditions: cited from earlier work
Chain of S100P (Homo sapiens) (P25815 whole entry): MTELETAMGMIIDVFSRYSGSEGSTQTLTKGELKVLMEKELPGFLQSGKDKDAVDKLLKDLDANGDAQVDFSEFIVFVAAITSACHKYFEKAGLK

[3] = biological target: S100P (monomeric) (Homo sapiens) (UniProt P25815); conditions: cited from earlier work
Chain of S100P (monomeric) (Homo sapiens) (P25815 whole entry): as above

Chain of Human S100A2 protein (P29034 4-98): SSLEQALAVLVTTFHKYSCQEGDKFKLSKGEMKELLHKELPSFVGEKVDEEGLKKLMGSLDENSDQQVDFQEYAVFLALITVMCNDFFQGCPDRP
Chain of S100P (P25815 whole entry): as the sequence (P25815 whole entry) above
Chain of interleukin 11 (P20809 22-199): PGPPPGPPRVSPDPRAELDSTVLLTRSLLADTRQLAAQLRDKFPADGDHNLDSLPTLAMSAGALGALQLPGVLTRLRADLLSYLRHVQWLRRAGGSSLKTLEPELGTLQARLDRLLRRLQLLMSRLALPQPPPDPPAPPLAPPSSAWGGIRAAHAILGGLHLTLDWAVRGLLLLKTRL

Kd1 (heterogeneous ligand model, ligand population L1) [1]: 81 nM
Kd2 (heterogeneous ligand model, ligand population L2) [1]: 1.2 µM
ka1 (heterogeneous ligand model, ligand population L1) [1]: 2200 M⁻¹ s⁻¹
ka2 (heterogeneous ligand model, ligand population L2) [1]: 10000 M⁻¹ s⁻¹
kd1 (heterogeneous ligand model, ligand population L1) [1]: 0.00018 s⁻¹
kd2 (heterogeneous ligand model, ligand population L2) [1]: 0.012 s⁻¹
Substance: Human S100A2 protein (from UniProt P29034 4-98) (natural protein)

Substance: S100P (from UniProt P25815)
Kd [2]: 64 nM

Substance: interleukin 11 (from UniProt P20809)
Kd [3]: 1 nM
